Measured values taken from patent US20100178253A1 (published 2010).
Bridges are numbered along the chain shown (N, C = ends).

B1: Compound 5 ([Peptide 1]-DY-651 conjugate) (peptide)
peptide: Ac-AGSCYCSGPPRFECWCYETEGTGGGK-NH2
modifications: disulfide 6-14, 4-16; not fully specified (residue 26); also: DY-651 dye attached, site not given here
B2: Compound 2 ([Peptide 1]-DY-631 conjugate) (peptide)
peptide: Ac-AGSCYCSGPPRFECWCYETEGTGGGK-NH2
modifications: disulfide 6-14, 4-16; not fully specified (residue 26); also: DY-631 dye attached, site not given here
B3: Compound 4 ([Peptide 1]-DY-650 conjugate) (peptide)
peptide: Ac-AGSCYCSGPPRFECWCYETEGTGGGK-NH2
modifications: disulfide 6-14, 4-16; not fully specified (residue 26); also: DY-650 dye attached, site not given here
B4: Compound 3 ([Peptide 1]-DY-633 conjugate) (peptide)
peptide: Ac-AGSCYCSGPPRFECWCYETEGTGGGK-NH2
modifications: disulfide 6-14, 4-16; not fully specified (residue 26); also: DY-633 dye attached, site not given here
B5: Compound 1 ([Peptide 1]-DY-630 conjugate) (peptide)
peptide: Ac-AGSCYCSGPPRFECWCYETEGTGGGK-NH2
modifications: disulfide 6-14, 4-16; not fully specified (residue 26); also: DY-630 dye attached, site not given here
notes: Printed in three-letter code, turned into one-letter code here
B6: Compound 6 ([Peptide 1]-DY-652 conjugate) (peptide)
peptide: Ac-AGSCYCSGPPRFECWCYETEGTGGGK-NH2
modifications: disulfide 6-14, 4-16; not fully specified (residue 26); also: DY-652 dye attached, site not given here

molecular target: T1, human serum albumin (human, UniProt P02768 25-609); assay: fluorescence polarisation, change of polarisation value with human serum albumin
T1 construct: also called HSA; plasma protein (PPB)
T1 sequence (P02768 25-609 limits assumed): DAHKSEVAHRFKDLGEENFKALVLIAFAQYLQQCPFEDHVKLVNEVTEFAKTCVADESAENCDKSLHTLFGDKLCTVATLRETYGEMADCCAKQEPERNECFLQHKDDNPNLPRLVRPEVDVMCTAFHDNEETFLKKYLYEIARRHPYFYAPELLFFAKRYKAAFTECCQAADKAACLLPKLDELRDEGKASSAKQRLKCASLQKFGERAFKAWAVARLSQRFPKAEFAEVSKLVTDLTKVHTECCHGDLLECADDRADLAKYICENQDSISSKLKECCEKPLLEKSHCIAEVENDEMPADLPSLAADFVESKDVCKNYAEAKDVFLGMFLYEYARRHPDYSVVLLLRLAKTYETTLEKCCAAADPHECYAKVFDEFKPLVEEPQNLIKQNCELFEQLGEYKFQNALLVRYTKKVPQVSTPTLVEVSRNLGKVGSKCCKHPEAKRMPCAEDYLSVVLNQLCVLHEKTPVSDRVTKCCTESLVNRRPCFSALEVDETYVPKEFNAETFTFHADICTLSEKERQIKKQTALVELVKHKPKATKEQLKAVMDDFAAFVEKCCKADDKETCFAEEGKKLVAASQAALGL

| Binder | PPB (% change in polarisation value) [%] |
| --- | --- |
| B1 | 49 |
| B2 | 33 |
| B3 | 55 |
| B4 | 27 |
| B5 | 36 |
| B6 | 46 |

molecular target: T2, human c-Met/Fc chimera (R&D Systems) (human, UniProt P08581 25-932); assay: fluorescence polarisation (anisotropy), 5 nM dye-labelled peptide, c-Met/Fc 0-250 nM, one-site fit
T2 construct: Bought from R&D Systems; Printed once as 'c-Met/Fe chimera' [sic]; also called human c-Met/Fe chimera; not shown: Fc part (and any linker or tag) of the bought chimera
Experimental: The fluorescence anisotropy measurements were performed in 384-well microplates in a volume of 10 μL in binding buffer (PBS, 0.01% Tween-20, pH 7.5) using a Tecan Safire fluorescence polarisation plate reader (Tecan, US) at Ex 635/Em 678 nm. The to concentration of dye-labelled peptide was held constant (5 nM) and the concentration of the human c-Met/Fe chimera (R&D Systems) was varied from 0-250 nM. Binding mixtures were equilibrated in the microplate for 10 min at 30° C. The observed change in anisotropy was fit to the equation

T2 sequence (P08581 25-932 limits assumed, change not shown): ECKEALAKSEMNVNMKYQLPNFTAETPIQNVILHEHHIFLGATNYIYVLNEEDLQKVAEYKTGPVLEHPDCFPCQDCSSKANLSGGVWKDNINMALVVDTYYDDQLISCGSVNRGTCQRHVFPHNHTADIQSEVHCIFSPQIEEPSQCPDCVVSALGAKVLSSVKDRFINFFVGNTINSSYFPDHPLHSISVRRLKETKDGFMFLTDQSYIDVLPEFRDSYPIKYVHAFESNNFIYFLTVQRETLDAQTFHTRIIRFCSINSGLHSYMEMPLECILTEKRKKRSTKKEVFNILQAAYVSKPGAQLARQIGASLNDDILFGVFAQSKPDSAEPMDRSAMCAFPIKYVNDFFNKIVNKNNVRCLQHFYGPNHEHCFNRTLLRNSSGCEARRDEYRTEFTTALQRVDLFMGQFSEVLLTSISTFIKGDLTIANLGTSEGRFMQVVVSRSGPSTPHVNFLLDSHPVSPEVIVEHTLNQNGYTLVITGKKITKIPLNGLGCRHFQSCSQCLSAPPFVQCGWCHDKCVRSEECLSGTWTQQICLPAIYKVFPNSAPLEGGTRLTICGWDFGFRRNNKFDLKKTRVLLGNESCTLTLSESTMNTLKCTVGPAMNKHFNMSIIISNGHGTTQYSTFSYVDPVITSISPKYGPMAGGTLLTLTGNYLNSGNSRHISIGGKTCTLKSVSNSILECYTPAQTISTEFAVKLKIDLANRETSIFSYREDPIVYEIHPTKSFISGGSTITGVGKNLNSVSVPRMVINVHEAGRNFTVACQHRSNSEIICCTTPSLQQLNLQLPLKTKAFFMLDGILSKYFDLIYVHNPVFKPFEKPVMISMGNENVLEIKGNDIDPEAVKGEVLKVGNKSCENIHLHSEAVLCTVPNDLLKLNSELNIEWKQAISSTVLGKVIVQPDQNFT

| Binder | Kd [nM] |
| --- | --- |
| B1 | 2.2 |
| B2 | 0.5 |
| B3 | 3.2 |
| B4 | 0.5 |
| B5 | 2.2 |
| B6 | 0.9 |
